B1: His6-N-WASp (natural protein, human, UniProt O00401 1-505, looked up)
chain: MSSVQQQPPPPRRVTNVGSLLLTPQENESLFTFLGKKCVTMSSAVVQLYAADRNCMWSKKCSGVACLVKDNPQRSYFLRIFDIKDGKLLWEQELYNNFVYNSPRGYFHTFAGDTCQVALNFANEEEAKKFRKAVTDLLGRRQRKSEKRRDPPNGPNLPMATVDIKNPEITTNRFYGPQVNNISHTKEKKKGKAKKKRLTKADIGTPSNFQHIGHVGWDPNTGFDLNNLDPELKNLFDMCGISEAQLKDRETSKVIYDFIEKTGGVEAVKNELRRQAPPPPPPSRGGPPPPPPPPHNSGPPPPPARGRGAPPPPPSRAPTAAPPPPPPSRPSVAVPPPPPNRMYPPPPPALPSSAPSGPPPPPPSVLGVGPVAPPPPPPPPPPPGPPPPPGLPSDGDHQVPTTAGNKAALLDQIREGAQLKKVEQNSRPVSCSGRDALLDQIRQGIQLKSVADGQESTPPTPAPTSGIVGALMEVMQKRSKAIHSSDEDEDEDDEEDFEDDDEWED

Key:
Assay in all cases: pull-down
[1] = target: B1
[2] = target: full-length Arg (His6-Arg) (mouse, UniProt Q4JIM5 1-1182)
[3] = target: Phosphorylated N-WASp (pN-WASp) (human, UniProt O00401 1-505, tyrosine phosphorylated by co-expressed Arg; Y256 is the primary site)

Chain of full-length Arg (His6-Arg) (Q4JIM5 whole entry): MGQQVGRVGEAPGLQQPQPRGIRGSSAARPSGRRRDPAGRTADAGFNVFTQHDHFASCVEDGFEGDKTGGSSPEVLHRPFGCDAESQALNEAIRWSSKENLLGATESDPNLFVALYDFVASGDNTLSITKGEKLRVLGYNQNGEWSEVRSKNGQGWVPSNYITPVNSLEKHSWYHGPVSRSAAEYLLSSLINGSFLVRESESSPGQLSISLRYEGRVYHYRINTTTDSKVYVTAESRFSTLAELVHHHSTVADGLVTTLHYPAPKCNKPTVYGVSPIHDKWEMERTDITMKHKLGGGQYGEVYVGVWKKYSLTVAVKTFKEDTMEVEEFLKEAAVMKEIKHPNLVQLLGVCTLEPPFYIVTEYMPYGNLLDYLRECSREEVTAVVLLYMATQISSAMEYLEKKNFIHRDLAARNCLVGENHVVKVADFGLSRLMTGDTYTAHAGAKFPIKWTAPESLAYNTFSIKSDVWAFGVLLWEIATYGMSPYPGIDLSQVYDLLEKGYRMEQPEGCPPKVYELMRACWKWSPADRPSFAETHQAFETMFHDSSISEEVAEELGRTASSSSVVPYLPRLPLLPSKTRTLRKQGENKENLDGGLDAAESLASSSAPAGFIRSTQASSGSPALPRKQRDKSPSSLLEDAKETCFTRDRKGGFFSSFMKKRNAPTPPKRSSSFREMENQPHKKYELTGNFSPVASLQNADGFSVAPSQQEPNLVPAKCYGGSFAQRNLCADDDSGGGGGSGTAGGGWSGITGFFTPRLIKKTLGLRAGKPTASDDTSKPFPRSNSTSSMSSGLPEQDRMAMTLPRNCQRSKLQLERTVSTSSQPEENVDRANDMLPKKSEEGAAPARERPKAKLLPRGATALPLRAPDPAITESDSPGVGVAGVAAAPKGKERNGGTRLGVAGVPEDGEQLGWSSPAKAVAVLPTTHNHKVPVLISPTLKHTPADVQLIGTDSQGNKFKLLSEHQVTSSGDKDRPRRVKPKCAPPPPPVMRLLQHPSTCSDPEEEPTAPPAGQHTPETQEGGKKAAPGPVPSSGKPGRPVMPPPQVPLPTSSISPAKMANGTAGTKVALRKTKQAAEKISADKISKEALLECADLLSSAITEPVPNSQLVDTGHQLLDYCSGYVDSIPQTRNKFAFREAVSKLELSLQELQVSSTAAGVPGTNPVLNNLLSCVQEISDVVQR

Row | Kd [1] [nM] | Kd [2] [nM] | Kd [3] [nM] | Binder
1 | 1400 ± 200 | – | – | GST-Arg-SH3 (domain or fragment, mouse, UniProt Q4JIM5 107-167, looked up) SDPNLFVALYDFVASGDNTLSITKGEKLRVLGYNQNGEWSEVRSKNGQGWVPSNYITPVNS
2 | – | ≥ 3800 | – | B1
3 | ≥ 3700 | – | 1700 ± 100 | GST-Arg-SH3SH2 (domain or fragment, mouse, UniProt Q4JIM5 107-263, looked up) SDPNLFVALYDFVASGDNTLSITKGEKLRVLGYNQNGEWSEVRSKNGQGWVPSNYITPVNSLEKHSWYHGPVSRSAAEYLLSSLINGSFLVRESESSPGQLSISLRYEGRVYHYRINTTTDSKVYVTAESRFSTLAELVHHHSTVADGLVTTLHYPA
